Reference: patent publication US20210253718A1, “FRIZZLED5 PROTEIN-BINDING AGENTS” (Modmab Therapeutics Corporation, priority 2016, published 2021)

T1: FZD6 CRD (Homo sapiens, UniProt O60353)
T1 construct: S20-P146; GPI anchor signal (C); expressed in transfected cells; host or cells: CHO cells, lentiviral pLenti-puro
T1 sequence (O60353 20-146): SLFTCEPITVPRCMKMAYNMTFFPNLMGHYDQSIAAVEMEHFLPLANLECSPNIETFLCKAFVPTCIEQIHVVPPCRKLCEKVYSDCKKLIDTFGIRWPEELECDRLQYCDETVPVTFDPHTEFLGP

T2: FZD3 CRD (Homo sapiens, UniProt Q9NPG1)
T2 construct: CRD of FZD1, FZD2, FZD3, FZD4, FZD5, FZD6, FZD7, FZD8, FZD9 or FZD10; GPI anchor signal (C); expressed in transfected cells; host or cells: CHO cells, lentiviral pLenti-puro
T2 sequence (Q9NPG1 23-136 limits assumed): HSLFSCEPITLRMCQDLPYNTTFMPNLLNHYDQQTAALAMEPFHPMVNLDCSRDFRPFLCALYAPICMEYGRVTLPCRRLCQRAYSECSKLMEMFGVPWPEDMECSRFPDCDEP

T3: FZD4 CRD (Homo sapiens, UniProt Q9ULV1)
T3 construct: E42-V167; GPI anchor signal (C); expressed in transfected cells; host or cells: CHO cells, lentiviral pLenti-puro
T3 sequence (Q9ULV1 42-167): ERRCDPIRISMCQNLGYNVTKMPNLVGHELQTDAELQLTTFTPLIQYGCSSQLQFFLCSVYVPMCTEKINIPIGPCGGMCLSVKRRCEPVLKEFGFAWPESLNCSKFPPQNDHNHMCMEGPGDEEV

T4: FZD10 CRD (Homo sapiens, UniProt Q9ULW2)
T4 construct: 30-156; GPI anchor signal (C); expressed in transfected cells; host or cells: CHO cells, lentiviral pLenti-puro
T4 sequence (Q9ULW2 30-156): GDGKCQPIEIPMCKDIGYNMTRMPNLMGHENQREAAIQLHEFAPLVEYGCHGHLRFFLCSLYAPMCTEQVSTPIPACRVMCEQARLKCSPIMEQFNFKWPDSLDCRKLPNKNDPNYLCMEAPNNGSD

T5: FZD8 CRD (Homo sapiens, UniProt Q9H461)
T5 construct: K31-D155; GPI anchor signal (C); expressed in transfected cells; host or cells: CHO cells, lentiviral pLenti-puro
T5 sequence (Q9H461 31-155): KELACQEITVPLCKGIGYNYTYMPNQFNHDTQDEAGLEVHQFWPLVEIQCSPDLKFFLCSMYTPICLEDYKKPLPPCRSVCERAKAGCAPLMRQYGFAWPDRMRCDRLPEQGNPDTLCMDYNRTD


How the values were obtained:
[1] = test system: RWP1 cells; test: Effect of anti-FZD5 Fabs on proliferation of pancreatic cancer cell lines (percent growth inhibition); type: cell-based, human; conditions: Fab 2 μg/ml
[2] = biological target: T1, FZD6 CRD; test: Immunofluorescence of anti-FZD5 Fab binding to CHO cells overexpressing Frizzled CRD; design: key: −: no binding; +: very weak binder; ++: weak binder; +++: good binder; ++++: very good binder
Experimental: (§1) Plasmids: pLCKO lentiviral vector used for knockout (TKO) library construction and expression of individual gRNAs was constructed as described previously (Hart et al., 2015). Briefly, single guide RNA (sgRNA) scaffold was amplified from px330 (Addgene 42230) and cloned into pLKO.TRC005 lentiviral vector (Broad Institute, Cambridge, Mass.) using AgeI/EcoRI restriction sites. BfuAI sites were added at the 5′ end of the sgRNA scaffold for cloning the TKO library or individual gRNA target sequences. Lenti Cas9-2A-BsdR vector used to generate Cas9 stable expression cell lines was constructed as described previously (Hart et al., 2015). Briefly, lentiCRISPR pXPR_001 (Addgene 49535) was modified through removal of the sgRNA scaffold region through NdeI/EcoRI digest and blunt ends generation using Large Klenow Fragment (NEB). 2A-puro was replaced with 2A-BsdR by PCR using the NheI/MluI sites. Each of the 10 human Frizzled cysteine rich domains (CRDs) were cloned into the lentiviral expression plasmid pLenti-puro in the following cassette: FZD_CRD-MYC-GPI.
(§2) To confirm that the FZD5-WNT7B circuit is not driven simply by expression and rule out the possibility of a disconnect between RNA and protein levels for the Wnt receptors in HPAF-II cells, a panel of recombinant Fabs were generated, alternatively referred to herein as ‘Frizzled profiler’, that can detect and discriminate all but one of the ten Frizzled receptors. […] To characterize the binding specificity of these Fabs on cells, a panel of 10 CHO cell lines was generated, each expressing the CRD domain of a different myc-tagged Frizzled family member anchored at the plasma membrane through a GPI anchor (CHO-myc-FZDGPI). Despite the high sequence identity between Frizzled family members (FIG. 7A, FIG. 7B), selective Fabs were identified for FZD4, FZD5, FZD6 and FZD10 as assessed by immunofluorescence and flow cytometry (FIG. 7D and FIG. 8). […] The FZD8 CRD is most homologous to that of FZD5 (FIG. 7B). These Fabs can be used to discriminate expression of FZD1, FZD2, FZD4, FZD5, FZD6, FZD7, FZD8, FZD9 and FZD10 (FIG. 7D and FIG. 8). The ‘Frizzled profiler’ therefore consists of 10 different Fabs that can be used to discriminate expression of 9 different Frizzled family members. The Frizzled profiler was then used to confirm that HPAF-II cells express FZD1, FZD5, FZD6 and possibly FZD8 (FIG. 7E).
(§3) The binding of anti-FZD5 Fabs to cell surface-expressed Frizzled protein was further determined for each member of the Frizzled family via flow cytometry and immunofluorescence analysis of a panel of 10 CHO cell lines, each ectopically over-expressing the extracellular cysteine-rich domain (CRD) of a different Frizzled protein family member.

[3] = biological target: T2, FZD3 CRD; test: as above; design: key: −: no binding; +: very weak binder; ++: weak binder; +++: good binder; ++++: very good binder
Experimental: as §1, §2, §3

[4] = biological target: T6, FZD2 CRD (Homo sapiens, UniProt Q14332); test: as above; design: key: −: no binding; +: very weak binder; ++: weak binder; +++: good binder; ++++: very good binder
T6 construct: D35-P161; GPI anchor signal (C); expressed in transfected cells; host or cells: CHO cells, lentiviral pLenti-puro
Experimental: as §1, §2, §3

[5] = biological target: T3, FZD4 CRD; test: as above; design: key: −: no binding; +: very weak binder; ++: weak binder; +++: good binder; ++++: very good binder
Experimental: as §1, §2, §3

[6] = biological target: T7, FZD7 CRD (Homo sapiens, UniProt O75084); test: as above; design: key: −: no binding; +: very weak binder; ++: weak binder; +++: good binder; ++++: very good binder
T7 construct: D45-S169; GPI anchor signal (C); expressed in transfected cells; host or cells: CHO cells, lentiviral pLenti-puro
Experimental: as §1, §2, §3

[7] = biological target: T4, FZD10 CRD; test: as above; design: key: −: no binding; +: very weak binder; ++: weak binder; +++: good binder; ++++: very good binder
Experimental: as §1, §2, §3

[8] = biological target: T5, FZD8 CRD; test: as above; design: key: −: no binding; +: very weak binder; ++: weak binder; +++: good binder; ++++: very good binder
Experimental: as §1, §2, §3

[9] = test system: ASPC-1 cells; test: Effect of anti-FZD5 Fabs on proliferation of pancreatic cancer cell lines (percent growth inhibition); type: cell-based, human; conditions: Fab 2 μg/ml

Molecule	Immunofluorescence binding, Frizzled CRD overexpressed on CHO cells: FZD6 [2]	Immunofluorescence binding, Frizzled CRD overexpressed on CHO cells: FZD3 [3]	Immunofluorescence binding, Frizzled CRD overexpressed on CHO cells: FZD2 [4]	Immunofluorescence binding, Frizzled CRD overexpressed on CHO cells: FZD4 [5]	Immunofluorescence binding, Frizzled CRD overexpressed on CHO cells: FZD7 [6]	Immunofluorescence binding, Frizzled CRD overexpressed on CHO cells: FZD10 [7]	Immunofluorescence binding, Frizzled CRD overexpressed on CHO cells: FZD8 [8]	percent growth inhibition, RWP1 2 μg/ml [1] [%]	percent growth inhibition, ASPC-1 2 μg/ml [9] [%]
Fab-2911: anti-FZD5 Fab with antibody variable region Fv-2911; CDR SEQ ID NOs: 35, 36, 50, 89, 126, 163 (antibody, V domains shown) VH: EVQLVESGGGLVQPGGSLRLSCAASGFNIYYSSMHWVRQAPGKGLEWVAYIYPYSGYTSYADSVKGRFTISADTSKNTAYLQMNSLRAEDTAVYYCARYFWWYGFDYWGQGTLVTVSS VL: DIQMTQSPSSLSASVGDRVTITCRASQSVSSAVAWYQQKPGKAPKLLIYSASSLYSGVPSRFSGSRSGTDFTLTISSLQPEDFATYYCQQGPWYPFTFGQGTKVEIK	−	−	+++	−	+++	−	−	20.34	3.18
Fab-2909: anti-FZD5 Fab with antibody variable region Fv-2909; CDR SEQ ID NOs: 35, 36, 48, 87, 124, 161 (antibody, V domains shown) VH: EVQLVESGGGLVQPGGSLRLSCAASGFNISSSYMHWVRQAPGKGLEWVASISSSSGYTSYADSVKGRFTISADTSKNTAYLQMNSLRAEDTAVYYCARTVRGSKKPYFSGWAMDYWGQGTLVTVSS VL: DIQMTQSPSSLSASVGDRVTITCRASQSVSSAVAWYQQKPGKAPKLLIYSASSLYSGVPSRFSGSRSGTDFTLTISSLQPEDFATYYCQQSWSYHYLITFGQGTKVEIK	−	−	−	−	+	−	−	12.89	−6.84
Fab-2910: anti-FZD5 Fab with antibody variable region Fv-2910; CDR SEQ ID NOs: 35, 36, 49, 88, 125, 162 (antibody, V domains shown) VH: EVQLVESGGGLVQPGGSLRLSCAASGFNISYSYMHWVRQAPGKGLEWVASIYSSSSSTSYADSVKGRFTISADTSKNTAYLQMNSLRAEDTAVYYCARGAMDYWGQGTLVTVSS VL: DIQMTQSPSSLSASVGDRVTITCRASQSVSSAVAWYQQKPGKAPKLLIYSASSLYSGVPSRFSGSRSGTDFTLTISSLQPEDFATYYCQQWYGSHLITFGQGTKVEIK	−	−	−	−	+	−	−	71.49	39.05

More lines, main results first:

Immunofluorescence binding, Frizzled CRD overexpressed on CHO cells: FZD6 [2]	Immunofluorescence binding, Frizzled CRD overexpressed on CHO cells: FZD3 [3]	Immunofluorescence binding, Frizzled CRD overexpressed on CHO cells: FZD2 [4]	Immunofluorescence binding, Frizzled CRD overexpressed on CHO cells: FZD4 [5]	Immunofluorescence binding, Frizzled CRD overexpressed on CHO cells: FZD7 [6]	Immunofluorescence binding, Frizzled CRD overexpressed on CHO cells: FZD10 [7]	Immunofluorescence binding, Frizzled CRD overexpressed on CHO cells: FZD8 [8]	Molecule	percent growth inhibition, RWP1 2 μg/ml [1] [%]	percent growth inhibition, ASPC-1 2 μg/ml [9] [%]
−	−	+++	++	++++	−	+	Fab-2912: anti-FZD5 Fab with antibody variable region Fv-2912; CDR SEQ ID NOs: 35, 36, 51, 90, 127, 164 (antibody, V domains shown) VH: EVQLVESGGGLVQPGGSLRLSCAASGFNISYSYIHWVRQAPGKGLEWVASISSSSGYTSYADSVKGRFTISADTSKNTAYLQMNSLRAEDTAVYYCARTVRGSKKPYFSGWAMDYWGQGTLVTVSS VL: DIQMTQSPSSLSASVGDRVTITCRASQSVSSAVAWYQQKPGKAPKLLIYSASSLYSGVPSRFSGSRSGTDFTLTISSLQPEDFATYYCQQFYFPYLITFGQGTKVEIK	15.55	6.93
−	−	+++	−	++++	−	−	Fab-2913: anti-FZD5 Fab with antibody variable region Fv-2913; CDR SEQ ID NOs: 35, 36, 52, 91, 128, 165 (antibody, V domains shown) VH: EVQLVESGGGLVQPGGSLRLSCAASGFNISYSSIHWVRQAPGKGLEWVASIYPYSSSTSYADSVKGRFTISADTSKNTAYLQMNSLRAEDTAVYYCARYGYYGLDYWGQGTLVTVSS VL: DIQMTQSPSSLSASVGDRVTITCRASQSVSSAVAWYQQKPGKAPKLLIYSASSLYSGVPSRFSGSRSGTDFTLTISSLQPEDFATYYCQQWGVSHYLFTFGQGTKVEIK	59.79	2.25
